In PMC4015550, “Immunopurification of adenomatous polyposis coli (APC) proteins” (BMC Research Notes, 2013):

Molecular target: the molecule itself
Assay: not stated; data not shown; APC fragment of residues 1-61 said to form a dimer; no method or conditions told

B1: APC-NT antigen (APC residues 1–61 with an N-terminal FLAG-tag) (domain or fragment, human, UniProt P25054 1-61, looked up)
chain: MAAASYDQLLKQVEALKMENSNLRQELEDNSNHLTKLETEASNMKEVLKQLQGSIEDEAMA
notes: adenomatous polyposis coli (APC), human, amino acids 1-61, the N-terminal oligomerisation (coiled-coil) region; also called N-terminal fragment of APC (residues 1–61); source: E. coli (pET30a+), purified (anti-FLAG M2 Sepharose, MonoQ anion exchange, reversed-phase HPLC)
stoichiometry N: 2
